One molecule from publication PMC13503762 (Nature Communications, 2026) can be followed below.

This experiment deals with SARS-CoV-2 M protein (purified, in LMNG/CHS detergent) (SARS-CoV-2, UniProt P0DTC5). The experiment is described as follows: cryo-EM structure. As to conditions: both partners purified.

B1: short conformation Fab (scFab) (Fab, V domains shown)
VH: EVQLQQSGPELVKPGASMKISCKTSGYSFTGYTMNWVKQSHGKNLEWIGLINPYNGDTSYNQKFKGKATLTVDKSSSTAYMELLSLTSEDSAVYYCEVINTYWGQGTLVTVSA
VL: DIVMTQSPASLAVSLGQRATISCKASQSIDYDGDNYMNWYQQKPGQPPKLLIYTTSNLESGIPARFSGSGSGTDFTLNIHPVEEGDAATYYCQQNNEDPYTFGGGTKLEIK
notes: also called short conformation-selective Fab; Fab targeting M_(short)
As to B1, the binding result is listed as “binds”.
